Experimental data reported in patent publication US20230414703A1 (published 2023).

B1: mouse PD-1 receptor (receptor, UniProt Q02242 25-167, looked up)
chain: LEVPNGPWRSLTFYPAWLTVSEGANATFTCSLSNWSEDLMLNWNRLSPSNQTEKQAAFCNGLSQPVQDARFQIIQLPNRHDFHMNILDTRRNDSGIYLCGAISLHPKAKIEESPGAELVVTERILETSTRYPSPSPKPEGRFQ

Legend:
[1] = target: T1, soluble recombinant human PD-1 receptor (human, UniProt Q15116 25-167, limits assumed); experiment: BIACORE T-200 SPR, PD-1 immobilised on CM5, steady state
T1 construct: also called human PD-1 receptors
T1 sequence (Q15116 25-167 limits assumed): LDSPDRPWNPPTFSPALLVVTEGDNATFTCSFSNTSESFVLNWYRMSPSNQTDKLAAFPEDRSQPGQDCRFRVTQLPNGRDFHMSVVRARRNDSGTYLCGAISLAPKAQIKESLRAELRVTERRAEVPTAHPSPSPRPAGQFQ
Procedure: (§1) 12,000 response units (RU) of human and 6000 RU of mouse PD-1 receptors were directly immobilized on flow cell 2 and flow cell 4 of the CM5 chip by amine coupling method (EDC/NHS). The un-occupied sites were blocked with 1 M ethanol amine. […] Flow cell 1 was kept blank and used for reference subtraction. Binding of analyte to the ligand was monitored in real time.
(§2) Due to fast on rate and off rate, KD was determined by steady state equilibrium kinetics.
(§3) Chi square (χ2) analysis was carried out between the actual sensorgram and a sensorgram generated from the BIANALYSIS® software (black line) to determine the accuracy of the analysis. A χ2 value within 1-2 is considered significant (accurate) and below 1 is highly significant (highly accurate).

[2] = target: B1; experiment: as above
Procedure: as §1, §2, §3

[3] = target: human PD-1 on Jurkat cells (human, UniProt Q15116 25-288); experiment: cell-based or functional assay
Sequence of human PD-1 on Jurkat cells (Q15116 25-288): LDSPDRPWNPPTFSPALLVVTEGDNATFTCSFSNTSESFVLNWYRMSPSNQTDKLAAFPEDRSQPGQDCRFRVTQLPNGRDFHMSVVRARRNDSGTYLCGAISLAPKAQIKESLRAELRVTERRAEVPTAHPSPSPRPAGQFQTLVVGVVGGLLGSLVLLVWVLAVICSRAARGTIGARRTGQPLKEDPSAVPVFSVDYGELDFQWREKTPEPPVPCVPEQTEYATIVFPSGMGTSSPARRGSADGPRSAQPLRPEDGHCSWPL

[4] = target: T1, soluble recombinant human PD-1 receptor; experiment: clonal phage ELISA, peptide on phage, PD-1 coated well
Description: The TriCo-20™ (TRICO-20™) and TriCo-16™ (TRICO-16™) Phage Display Peptide Libraries (Creative Biolabs, 45-1 Ramsey Road, Shirley, NY 11967) were screened to identify binders of soluble recombinant human PD-1 receptor.

[5] = target: Mouse PD-L1 (mouse, UniProt Q9EP73 19-239, limits assumed); experiment: BIACORE T-200 SPR, PD-1 immobilised on CM5, steady state
Sequence of Mouse PD-L1 (Q9EP73 19-239 limits assumed): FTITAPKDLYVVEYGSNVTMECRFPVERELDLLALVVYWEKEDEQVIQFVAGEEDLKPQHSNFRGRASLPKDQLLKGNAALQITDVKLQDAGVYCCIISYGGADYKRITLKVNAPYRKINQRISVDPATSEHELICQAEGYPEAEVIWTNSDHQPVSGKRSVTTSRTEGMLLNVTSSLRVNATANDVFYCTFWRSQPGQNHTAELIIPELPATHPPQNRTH

Binder | Ka [1] [M⁻¹] | Kd [1] [µM] | Ka [2] [M⁻¹] | Kd [2] [µM] | peak-fold inhibition (luciferase reporter expression) [3] [fold] | Clonal Phase ELISA coated signal [4] | Ka [5] [M⁻¹] | Kd [5] [µM]
SSYHHFKMPELHFGKNTFHQ (Found by phage display) [peptide SQ20] | 194000 | 5.16 | 21400 | 46.8 | ~1.5 | 0.284 | – | –
HHHQVYQVRSHWTGMHSGHD (Found by phage display) [peptide HD20] | 318000 | 3.41 | 4250 | 235 | ~1.5 | 0.281 | – | –
B1 | – | – | – | – | – | – | 2.75e+06 | 0.364
WNLPASFHNHHIRPHEHEWIQ (also called WQ-21) [peptide WQ20] | 3280 | 305 | 1310 | 761 | ~1.5 | 0.275 | – | –
QTRTVPMPKIHHPPWQNVVP (Found by phage display) [peptide QP20] | 93600 | 10.7 | 18000 | 55.4 | ~1.5 | 0.851 | – | –
